Assay results: paper PMC6332214, “A 7-Deazaadenosylaziridine Cofactor for Sequence-Specific Labeling of DNA by the DNA Cytosine-C5 Methyltransferase M.HhaI”

Molecular target: T1, M.HhaI (DNA cytosine-C5 methyltransferase) (Haemophilus haemolyticus, UniProt P05102 1-327)
T1 sequence: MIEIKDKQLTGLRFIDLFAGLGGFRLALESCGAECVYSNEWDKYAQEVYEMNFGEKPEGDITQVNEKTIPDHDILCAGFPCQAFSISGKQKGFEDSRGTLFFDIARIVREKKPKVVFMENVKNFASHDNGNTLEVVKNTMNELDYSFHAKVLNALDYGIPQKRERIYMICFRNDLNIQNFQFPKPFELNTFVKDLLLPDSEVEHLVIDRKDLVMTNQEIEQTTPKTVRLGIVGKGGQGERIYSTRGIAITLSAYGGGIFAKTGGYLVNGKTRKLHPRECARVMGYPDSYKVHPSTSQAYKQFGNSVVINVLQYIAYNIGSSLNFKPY
Assay: anion-exchange HPLC; complex of M.HhaI with coupling product; 80 uM cofactor 5, 10 uM duplex, 11 uM M.HhaI, 37 C 3 h; stable to chromatography, released at 65 C; 10 mM Tris-HCl pH 7.4, 50 mM NaCl, 0.05 mM EDTA, 2 mM beta-mercaptoethanol, 37 C; anion-exchange HPLC (Poros 10 HQ) in KCl gradient 0.2-1 M
Conditions: label: biotin (via cofactor 5); blunt

B1: duplex ODN I5·II (coupling product with aziridine cofactor 5) (dsDNA)
DNA 1: TGTCAGCGCATGA
DNA 2: TCATGCGCTGACA
modifications: target C (position 7 of strand I) alkylated with 7-deazaadenosylaziridine-biotin cofactor 5; 5-methyl-dC at position 6 of strand II
B1: binds.
